According to publication PMC6954424:

Target: mouse IgG (on magnet beads) (mouse)
Assay: pull-down; DNA-barcoded HaloTag protein G (93 nM by qPCR) mixed with mouse IgG magnet beads in PBS-NP40, 4°C, 2 h; three washes; bound barcode quantified by qPCR

With “DNA-barcoded HaloTag protein G (from UniProt P06654 34-417) (natural protein)” the fold signal (qPCR of the barcode) over the negative control barcoded GST with IgG was 1000 fold.
